# In patent publication US20090291083A1, “BARB4 TARGET, ANTIBODY DESIGNATED BARB4, BARB4 RELATED ANTIBODIES, AND METHODS OF MAKING AND USING SAME” (PATRYS LIMITED, priority 2008, published 2009):
# Experiments:
# [1] = tested on: Malignant Tissues: Breast; test: Immunohistochemistry (IHC) with biotinylated BARB4 on malignant tissue; format: binding, human; conditions: positive/negative
# Experimental: (§1) Immunohistochemistry with human IgG on human tissue naturally results in high background staining. Accordingly, BARB4 was labeled with biotin to reduce background.
# (§2) BARB4 antibody and an unrelated commercial IgG control (Chrompure IgG, Dianova) where labelled with “EZ-Link Maleimide-PEO Solid Phase Biotinylation Kit” from Pierce (Cat-# 21930) and Immunohistochemistry was initiated on different tumor tissue. Parrafin embedded tissue was first deparaffinized by treatment with Xylene 1 for 5 min, Xylene 2 for 5 min, followed by 100% Ethanol 1 for 5 min, 100% Ethanol 2 for 5 min, 70 ml Methanol+500 μl H2O2 for 7 min, 90% Ethanol 1 for 3 min, 90% Ethanol 2 for 3 min, 80% Ethanol 1 for 3 min, 80% Ethanol 2 for 3 min, 70% Ethanol 1 for 3 min, 70% Ethanol 2 for 3 min, and then washed three times with distilled H2O. (1 and 2 mean that the tissues were treated 2 times with the same alcohol, one after the another, in two different tanks.) Tissue was then heated in Citric acid, pH 5,5 in a water-bath at 99.9° C. for 20 min, placed in Tris/NaCl (Tris, 0.6 g/l and NaCl 8.1 g/l, pH 7.4) for 5 min, block with 0.5% BSA in PBS for 60 min, and then washed three times with Tris/NaCl (Tris, 0.6 g/l and NaCl 8.1 g/l, pH 7.4). Primary antibody (150 μl per microscope slide) was added, or a negative control biotinylated isotype matched control human antibody (Chrompure IgG, Dianova, Germany) or a positive controlanti-cytokeratin antibody, and incubated for 30 min in a humidified chamber at 37° C. Tissue was washed three times with Tris/NaCl (Tris, 0.6 g/l and NaCl 8.1 g/l, pH 7.4). Secondary antibody: (150 […]) was subsequently added and incubated for 30 min in a humidified chamber at room temperature (for biotinylated antibodies: NeurtrAvidin 1:100 in PBS), washed three times with Tris/NaCl (Tris, 0.6 g/l and NaCl 8.1 g/l, pH7.4), placed in PBS for 10 min. Tiusse was subsequently incubated with diaminobenzidine (0.05%)-hydrogen peroxide (0.02%) (150 μl per microscope slide) (Sigma, Taufkirchen, München, Germany) for 10 min, washed three times with H2O, washed once with distilled H2O, incubated with hematoxylin/eosin for 5 min, and placed under running tap water 10-15 min. Tissue was then washed again with distilled H2O, and the slides covered with Aquatex (Merck Bioscience).
# [2] = tested on: Malignant Tissues: Prostrate; test: as above; format: binding, human; conditions: Adeno, positive/negative
# Experimental: as §1, §2
# BxPC-3 = test: MTT cell proliferation assay (Table 2); format: cell-based, human; conditions: for IC50, BA4 (24 hr): MTT 24 hr post-treatment; for IC50, BA4 (48 hr): MTT 48 hr post-treatment
# Experimental: (§3) BARB4 was also evaluated for inhibition of proliferation of other cancer cell lines, including BxPC-3, COLO 205, H460, MDA-MB-231 and MIAPaCa-2 cells, as well as HT-29, HCT-116, BxPC-3, PANC-1, A549, PC-3 and HCT116 cells. In brief, various human cancer cell lines obtained from the American Type Culture Collection (ATCC) were established using standard in vitro culture methods and ATCC recommended media in 175 cm2 BD tissue culture treated flasks. In particular, MDAMB-231 cultures were incubated in a humidified 37° C., 100% air incubator, and BxPC-3, COLO 205, H460 and MIAPaCa-2 cultures were incubated in a humidified 37° C., 5% CO2, 95% air incubator. Cultures were sub-cultivated regularly to maintain log phase growth. All cell lines were brought up from cryopreservation using the original recommended ATCC media type and supplements. Cell line specific seeding densities were based on historical data from MIR Preclinical Services for growth over a 72 hr period.
# (§4) On the day of IC50 plate seeding, the adherent cells were removed from the flasks for each cell line using trypsin EDTA, 1× (Cell Gro #25-053-CI). Trypsin was deactivated using complete media and the cells were pooled (each line done separately). The pooled cells in complete media were counted using trypan blue exclusion with a Neubauer Bright-Line® hemacytometer. The percent viability for each cell line was as follows:
# (§5) Based on live cell counts, each suspension was then diluted in complete media (containing required supplements) to achieve the desired seeding density for each cell line. Once seeded, the cells were allowed to attach to the plates overnight and then treated with BA4 or cisplatin 24 hr post-seeding.
# (§6) BARB4 was serially diluted 1:2 (2× final conc. in dilution reservoir=1600 μg/ml) in media to achieve a final 800 μg/ml starting concentration in the top dosage wells of the treatment plate by diluting 1:2 when transferred from the reservoir to the treatment plate. Antibody was added to columns 1 through 10 of the treatment plate. Column 11 was for cells+media only control and column 12 was for a media only blank. Cisplatin (positive control) was manufactured by Sigma (# M4394, lot 087K1349) and supplied as a fine, dark yellow powder, in an amber vial, stored at room temperature and housed in a covered box to prevent exposure to light. Cisplatin was previously dissolved in 0.9% saline to make a clear, colorless 4 mM stock solution, aliquoted and frozen at −20° C. Frozen aliquots were quickly thawed by holding the tubes in hand, placed on wet ice and diluted (2× conc. dilution reservoir) to achieve a final 1 mM starting concentration in the top dosage wells of the treatment plate (diluted 1:2 when transferred from the dilution reservoir to the treatment plate). Serial dilutions of 1:4 were made from wells 1 through 10 of the dilution reservoir prior to transfer to the treatment plate.
# (§7) The BARB4 stock solution (10.5 mg/ml) was prepared by dilution in complete media according to the table below for a final starting treatment concentration of 800 μg/ml. The 4 mM stock solution of cisplatin in 0.9% saline was diluted in complete media for a final starting treatment concentration of 1 mM.
# (§8) Cells were exposed to BARB4 or cisplatin for a 24 hr period. The plates were incubated overnight at 37° C. At 24 hr and 48 hr post-treatment, the MTT assay was performed as described below.
# (§9) The anti-proliferative activity of BARB4 and cisplatin was evaluated using the MTT cell proliferation assay (ATCC catalog #30-1010K). The assay is based on the reduction of yellow tetrazolium MTT (3-(4,5-dimethylthiazolyl-2)-2,5-diphenyltetrazolium bromide) by metabolically active cells forming purple formazan crystals. […]
# COLO 205 = test: MTT cell proliferation assay (Table 2); format: cell-based, human; conditions: EC50
# Experimental: as §3, §4, §5, §6, §7, §8, §9
# H460 = test: MTT cell proliferation assay (Table 2); format: cell-based, human; conditions: EC50
# Experimental: as §3, §4, §5, §6, §7, §8, §9
# MDA-MB-231 = test: MTT cell proliferation assay (Table 2); format: cell-based, human; conditions: EC50
# Experimental: as §3, §4, §5, §6, §7, §8, §9
# MIAPaCa-2 = test: MTT cell proliferation assay (Table 2); format: cell-based, human; conditions: EC50
# Experimental: as §3, §4, §5, §6, §7, §8, §9
# [3] = BxPC-3, b280: really EC50 of total observed effect
molecule,measurement,setting,value
"BARB4: human IgG antibody produced by hybridoma DSMZ Deposit No. DSM ACC2876; heavy chain SEQ ID NOs:1, 3, 5, 7, light chain SEQ ID NO:9 (antibody, V domains shown) VH: QVQLVESGGGVVQPGRSLRLSCAASGFRFTTHGMHWVRQAPGKGLEWVAVISYNGRNKYYADYVNGRFTISRDDSRDTVFLQMNSLRPEDTAMYYCAKVRGDGYGDYGYFDYWGHGTLVSVSS VL: QSALTQPRSVSGSPGQSVTISCTGTYNYVSWYQQHPGKAPKLMIFDVSRRSSGVPDRFSGSKSGNTASLTISGLQAEDEADYYCCSYGGTYLYVFGTGTTVTVLGQ",Barb 4 +/−,[1]; Invasive ductal,2/0
same,Barb 4 +/−,[1]; Lung Metastasis,1/0
same,Barb 4 +/−,[1]; Lymph Node Metastasis,1/0
same,Barb 4 +/−,[2],1/0
same,"IC50, BA4 (24 hr)",BxPC-3; [3],>800 µg/mL
same,"IC50, BA4 (48 hr)",BxPC-3; [3],>800 µg/mL
same,"IC50, BA4 (24 hr)","BxPC-3; BxPC-3 repeat, EC50",>800 µg/mL
same,"IC50, BA4 (48 hr)","BxPC-3; BxPC-3 repeat, EC50",>800 µg/mL
same,"IC50, BA4 (24 hr)",COLO 205; MTT 24 hr post-treatment,66.8 µg/mL
same,"IC50, BA4 (48 hr)",COLO 205; MTT 48 hr post-treatment,2.78 µg/mL
same,"IC50, BA4 (24 hr)",H460; MTT 24 hr post-treatment,413 µg/mL
same,"IC50, BA4 (48 hr)",H460; MTT 48 hr post-treatment,>800 µg/mL
same,"IC50, BA4 (24 hr)",MDA-MB-231; MTT 24 hr post-treatment,154 µg/mL
same,"IC50, BA4 (48 hr)",MDA-MB-231; MTT 48 hr post-treatment,193 µg/mL
same,"IC50, BA4 (24 hr)",MIAPaCa-2; MTT 24 hr post-treatment,34.9 µg/mL
same,"IC50, BA4 (48 hr)",MIAPaCa-2; MTT 48 hr post-treatment,21.1 µg/mL
